According to article PMC6681757:

Key:
[1] = target: isolated bovine cardiac native thin filaments (NTFs) (bovine) (UniProt Q3ZC07); assay: co-sedimentation; high-velocity cosedimentation with isolated bovine cardiac NTFs, absence of calcium (pCa 9)
[2] = target: isolated bovine cardiac native thin filaments (NTFs) (bovine) (UniProt Q3ZC07)
[3] = target: myosin S2Δ, the first 126 amino acids of myosin S2 (cardiac myosin); assay: MST; C1mC2 species (or native full-length cMyBP-C) titrated against myosin S2Δ; normalized MST curves; conditions in SI Appendix
[4] = target: isolated bovine cardiac native thin filaments (NTFs) (bovine) (UniProt Q3ZC07); assay: co-sedimentation; high-velocity cosedimentation with isolated bovine cardiac NTFs, presence of 32 μmol/L CaCl2 (pCa 4.5)
[5] = target: myosin S2Δ, the first 126 amino acids of myosin S2 (cardiac myosin)

Kd [1]	EC50 of activation of NTF-stimulated myosin S1 ATPase in the absence of calcium (pCa 9) [2]	Kd [3]	Substance	other results
20 µM	5 μmol/L		C1mC2 bis-phosphorylated by PKA on S288 and S279 (C1mC2-2P) (domain or fragment)	
20 µM	2 μmol/L	30 µM	C1mC2 monophosphorylated on S288 (C1mC2-1P) (domain or fragment)	
20 µM		30 µM	C1mC2 monophosphorylated on S308 by PKCε (domain or fragment)	
60 µM			C1mC2 tris-phosphorylated by PKA on S288, S279 and S313 (C1mC2-3P) (domain or fragment)	Kd [4]: 60 µM
20 µM	1 μmol/L		C1mC2, recombinant fragment of rat cardiac myosin binding protein-C containing domains C1, the m-motif and C2, unphosphorylated (domain or fragment)	KD of the high-affinity binding site [3]: 20.7 µM; KD of the low-affinity binding site [3]: > 400 µM; EC50 of activation of thick filament structure (RLC BC probe orientation) in ventricular trabeculae, pCa 9 [5]: 10 μmol/L; IC50 of inhibition of NTF-stimulated myosin S1 ATPase in the absence of calcium (pCa 9), [C1mC2] > 2 μmol/L [2]: 3 μmol/L; IC50 of inhibition of myosin S1-NTF ATPase during full calcium activation (pCa 4) [2]: 2 μmol/L; maximal inhibition of myosin S1-NTF ATPase during full calcium activation (pCa 4) [2]: 50%
		20 µM	C1mC2-S288A, unphosphorylated (domain or fragment)	
		24.2 µM	λ-protein phosphatase–treated native full-length cMyBP-C isolated from rat ventricular tissue (from UniProt P56741 1-1274) (natural protein)	
